B1: PRT-658 (protein)
chain: MQITSVWTKGVTPLTPEQFRYNNEDVIHAPYLAHQGWYDITKAFDGKDNLLCGAATAGNMLHWWFDQNKTEIEAYLSKHPEKQKIIFNNQELFDLRKAINTKDSQTNSALFNYFRDKAFPNLSARQLGVMPDLVLDMFINGYYLNVFKTQSTDVNRPYQDKDKRGGIFDAVFTRGDQTTLLTARHDLKNKGLNDISTIIKQELTEGRALALSHTYANVSISHVINLWGADFNAEGNLEAIYVTDSDANASIGMKKYFVGINAHGHVAISAKKIEGENIGAQVLGLFTLSSGKDIWQKLSLEHHHHHH
B2: PRT-625 (protein)
chain: B1 chain with R96K, K97A, N100D, A109Q, Y158E, Q159D, A170H, T178S
B3: PRT-661 (protein)
chain: B1 chain with H34N, A43T, R96K, N100D, A109Q, A247S, H263A
B4: PRT-621 (protein)
chain: B1 chain with R96K, K97A, N100D, A109Q, G191T, D194E, T197Q, T204S, E205S
B5: PRT-647 (protein)
chain: B1 chain with R96K, K97A, N100D, A109Q, A183N, H185Y, K188Y, N189D
B6: PRT-650 (protein)
chain: B1 chain with E91K, R96K, K97A, N100D, A109Q, F147T, D160T, K163P
B7: PRT-637 (protein)
chain: B1 chain with K47G, N49G, R96K, K97A, N100D, A109Q, L127K, N248G, A249N, S250G
B8: PRT-657 (protein)
chain: B1 chain with K97E, N107D, A109K
B9: PRT-609 (protein)
chain: B1 chain with G46R, K47G, R96K, K97A, N100D, A109Q, L127G, N248D, A249E, S250K
B10: PRT-681 (protein)
chain: B1 chain with H79Y, K97A, A109Q, F257Y, D293E
B11: PRT-644 (protein)
chain: B1 chain with R96K, K97A, N100D, A109Q, F257Y, I260K, H263S, G275D
B12: PRT-692 (protein)
chain: MQITSVWTKGVTPPTPEQFRYNNEDVIHAPYLPNQGWYDITKTFNGGDNLLCGAATAGNMLHWWFDQNKTEIEAYLSKYPEKQKIIFNNQELFDLRAAINSKDSQTNSQLFNYFRDKAFPNLSARQLGVMPDLVLDMFINGYYLNVFKTQSTDVNRPYQDPDKRGGIFDDVFKEGDQTTLLTARHDLKNGTLNDISTLIKQELQSGKALALSHTYANVSISHVINLWGADFNAEGNLEAIYVTDSDANQSIGMKKYKVGVNAHGKVAISAKKIEGENIGAQVLGLFTLSSGKEIWQKLSLEHHHHHH
B13: PRT-642 (protein)
chain: MQITSVWTKGVTPLTPEQFRYNNEDVIHAPYLAHQGWYDITKTFNRGDNLLCGAATAGNMLHWWFDQNKTEIEAYLSKHPEKQKIIFNNQELFDLKAAIDTKDSQTNSQLFNYFRDKAFPNLSARQGGVMPDLVLDMFINGYYLNVFKTQSTDVNRPYQDKDKRGGIFDAVFTRGDQTTLLTARHDLKNKGLNDISTIIKQELTEGRALALSHTYANVSISHVINLWGADFNAEGNLEAIYVTDSDADEKIGMKKYFVGINAHGHVAISAKKIEGENIGAQVLGLFTLSSGKDIWQKLSLEHHHHHH
B14: PRT-623 (protein)
chain: MQITTVWTKGVTPLTPEQFRYNNEDVIHAPYLAHQGWYDITKAFDGKDNLLCGAATAGNMLHWWFDQNKTEIEAYLSKHPEKQKIIFNNQELFDLKAAIDTKDSQTNSQLFNYFRDKAFPNLSARQLGVMPDLVLDMFINGYYLNVFKTQSTDVNRPYQDKDKRGGIFDAVFTRGDQTTLLTARHDLKNGTLNEISQIIKQELQSGRALALSHTYANVSISHVINLWGADFNAEGNLIAIYVTDSDANASIGMKKYFVGINAHGHVAISAKKIEGENIGAQVLGLFTLSSGKDIWQKLSLEHHHHHH
B15: PRT-696 (protein)
chain: MTITSVWTKGVTPPTPEDFRYNNEDVLHAPYVPNQGWYDITKTFDGGDNLLCGAATAGNMLHWWFDQNKEEIERYLKKYPEKQKIIFNNQELFDVRAAINSKDSQTNSKLFNYFRDKAFPNLSARQLGVMPDLVLDMFINGYYLNLGKTQSTDVNRPYQDPDKRGGIFDDVFKEGDQTTLLTARHDLKNGGLNEISDLIKQELQSGKALALSHTYANVRINHVINLWGADFDAEGNLIAIYVTDSDANQSIGMKKYKVGVNANGKVAISAKKIEGDNIGAQVLGLFTLSTGQEIWQKLSLEHHHHHH
B16: PRT-686 (protein)
chain: MQITSVWTKGVTPLTPEQFTYNNEDVIHAPYIANQGWYDITKTFNGKDNLLCGAATAGNMLHWWFDQNKTEIENYLKKHPEKQKIIFNNQELFDLRKAINTKDSQTNSALFNYFRDKAFPNLSARQLGVMPDLVLDMFINGYYLNVFKTQSTDVNRPYQTKDKRGGIFDHVFTRGDQSTLLTARHDLKNKTLNEISDIIKQELTEGKALALSHTYANVSISHVINLWGADFNAEGNLEAIYVTDSDANASIGMKKYFVGVNSHGKVAISAKKIEDENIGAQVLGLFTLSSGQDIWEQLSLEHHHHHH
B17: PRT-549 (protein)
chain: MANQEIRYSEDTPSHITSVWTKGVTPPTQFIQNEDVLHAPYIANQGWYDITKTFNGKDDLLCGAATAGNMLHWWFDQNKEQIEAYLKKYPEKQKINFNGEQMFDVKEAIDTKDSQTDSALFNYFKDKAFPYLSTKHLGVFPDHVIDMFINGYRLSLTNHGPTPVKNQTKDPRGGIFDAVFTRGDQSKLLTARHDFKEKTLKEISQLIKQELTEGKALGLSHTYANVRINHVINLWGADFNAEGNLEAIYVTDSDSNASIGMKKYYVGVNAAGKVAISAKEIEGDNIGAQVLGLFTLSTGQDIWQQTNLEHHHHHH

Positions count from the first letter of the chain named.

This data set addresses pooled human IgG (human IgG1, 2, 3 and 4).
B1 showed an Enzyme Activity Endpoint Assay (purified): Fab′2 of 822 ng/µL, an Enzyme Activity Endpoint Assay (purified): Fc of 473 ng/µL, an Enzyme Activity Endpoint Assay (purified): IgG of 0 ng/µL and an Enzyme Activity Endpoint Assay (purified): scIgG of 317 ng/µL.

For the protein B2, the Enzyme Activity Endpoint Assay (purified): Fab′2 worked out at 451 ng/µL, the Enzyme Activity Endpoint Assay (purified): Fc came out at 405 ng/µL, the Enzyme Activity Endpoint Assay (purified): IgG came to 78 ng/µL and the Enzyme Activity Endpoint Assay (purified): scIgG was determined as 531 ng/µL.

Protein B3 came in with an Enzyme Activity Endpoint Assay (purified): Fab′2 of 187 ng/µL, an Enzyme Activity Endpoint Assay (purified): Fc of 121 ng/µL, an Enzyme Activity Endpoint Assay (purified): IgG of 0 ng/µL and an Enzyme Activity Endpoint Assay (purified): scIgG of 70 ng/µL.

For the protein B4, the Enzyme Activity Endpoint Assay (purified): Fab′2 was 976 ng/µL, the Enzyme Activity Endpoint Assay (purified): Fc was 514 ng/µL, the Enzyme Activity Endpoint Assay (purified): IgG worked out at 0 ng/µL and the Enzyme Activity Endpoint Assay (purified): scIgG came to 0 ng/µL.

In turn, B5 came in with an Enzyme Activity Endpoint Assay (purified): Fab′2 of 777 ng/µL, an Enzyme Activity Endpoint Assay (purified): Fc of 465 ng/µL, an Enzyme Activity Endpoint Assay (purified): IgG of 0 ng/µL and an Enzyme Activity Endpoint Assay (purified): scIgG of 330 ng/µL.

On to B6, for which the Enzyme Activity Endpoint Assay (purified): Fab′2 stood at 522 ng/µL, the Enzyme Activity Endpoint Assay (purified): Fc was 452 ng/µL, the Enzyme Activity Endpoint Assay (purified): IgG worked out at 130 ng/µL and the Enzyme Activity Endpoint Assay (purified): scIgG came out at 600 ng/µL.

The protein B7 returned an Enzyme Activity Endpoint Assay (purified): Fab′2 of 278 ng/µL, an Enzyme Activity Endpoint Assay (purified): Fc of 188 ng/µL, an Enzyme Activity Endpoint Assay (purified): IgG of 464 ng/µL and an Enzyme Activity Endpoint Assay (purified): scIgG of 602 ng/µL.

Consider B8, for which the Enzyme Activity Endpoint Assay (purified): Fab′2 worked out at 430 ng/µL, the Enzyme Activity Endpoint Assay (purified): Fc was 250 ng/µL, the Enzyme Activity Endpoint Assay (purified): IgG came to 0 ng/µL and the Enzyme Activity Endpoint Assay (purified): scIgG is 0 ng/µL.

B9 displayed an Enzyme Activity Endpoint Assay (purified): Fab′2 of 460 ng/µL, an Enzyme Activity Endpoint Assay (purified): Fc of 216 ng/µL, an Enzyme Activity Endpoint Assay (purified): IgG of 702 ng/µL and an Enzyme Activity Endpoint Assay (purified): scIgG of 726 ng/µL.

For the protein B10, the Enzyme Activity Endpoint Assay (purified): Fab′2 came out at 915 ng/µL, the Enzyme Activity Endpoint Assay (purified): Fc came to 492 ng/µL, the Enzyme Activity Endpoint Assay (purified): IgG was 0 ng/µL and the Enzyme Activity Endpoint Assay (purified): scIgG turned out to be 0 ng/µL.

For the protein B11, the Enzyme Activity Endpoint Assay (purified): Fab′2 is 882 ng/µL, the Enzyme Activity Endpoint Assay (purified): Fc turned out to be 518 ng/µL, the Enzyme Activity Endpoint Assay (purified): IgG came out at 0 ng/µL and the Enzyme Activity Endpoint Assay (purified): scIgG was determined as 355 ng/µL.

B12 displayed an Enzyme Activity Endpoint Assay (purified): Fab′2 of 442 ng/µL, an Enzyme Activity Endpoint Assay (purified): Fc of 44 ng/µL, an Enzyme Activity Endpoint Assay (purified): IgG of 429 ng/µL and an Enzyme Activity Endpoint Assay (purified): scIgG of 38 ng/µL.

The protein B13 came in with an Enzyme Activity Endpoint Assay (purified): Fab′2 of 175 ng/µL, an Enzyme Activity Endpoint Assay (purified): Fc of 260 ng/µL, an Enzyme Activity Endpoint Assay (purified): IgG of 360 ng/µL and an Enzyme Activity Endpoint Assay (purified): scIgG of 760 ng/µL.

B14 returned an Enzyme Activity Endpoint Assay (purified): Fab′2 of 433 ng/µL, an Enzyme Activity Endpoint Assay (purified): Fc of 260 ng/µL, an Enzyme Activity Endpoint Assay (purified): IgG of 0 ng/µL and an Enzyme Activity Endpoint Assay (purified): scIgG of 157 ng/µL.

B15: the Enzyme Activity Endpoint Assay (purified): Fab′2 amounted to 58 ng/µL, the Enzyme Activity Endpoint Assay (purified): Fc worked out at 0 ng/µL, the Enzyme Activity Endpoint Assay (purified): IgG was 1020 ng/µL and the Enzyme Activity Endpoint Assay (purified): scIgG turned out to be 19 ng/µL.

Turning to B16, the Enzyme Activity Endpoint Assay (purified): Fab′2 is 608 ng/µL, the Enzyme Activity Endpoint Assay (purified): Fc came to 355 ng/µL, the Enzyme Activity Endpoint Assay (purified): IgG is 0 ng/µL and the Enzyme Activity Endpoint Assay (purified): scIgG amounted to 252 ng/µL.

B17 showed an Enzyme Activity Endpoint Assay (purified): Fab′2 of 725 ng/µL, an Enzyme Activity Endpoint Assay (purified): Fc of 491 ng/µL, an Enzyme Activity Endpoint Assay (purified): IgG of 0 ng/µL and an Enzyme Activity Endpoint Assay (purified): scIgG of 279 ng/µL.

(Values after US20250027068.)
